Data taken from US10648979B2, “Molecular probes for detecting gram-negative bacteria in vitro and in vivo” (priority 2014, dated 2020).
Like-named read-outs stand apart in the source and are kept apart here. Bridge positions count the residues as written; N and C are the ends. Square brackets hold non-standard residues; d marks the D form. Peptide text beside a SMILES is read from it. * marks the point of attachment. ξ: configuration not given here. X1 = CN(C)c1ccc2c(c1)Oc1cc(N(C)C)ccc1C21OC(=O)c2ccc(C(=O)*)cc21; MethylRed = CN(C)c1ccc(/N=N/c2ccccc2C(=O)*)cc1; NBD = O=[N+]([O-])c1ccc(*)c2nonc12; dDab = NCC[C@@H](N)C(=O)O; Dab = NCC[C@H](N)C(=O)O; AEEA = NCCOCCOCC(=O)O; ξDab = NCCC(N)C(=O)O; ξK = NCCCCC(N)C(=O)O; ξV = CC(C)C(N)C(=O)O; ξP = O=C(O)C1CCCN1; ξA = CC(N)C(=O)O

Assays:
[1] = test system: Methicillin sensitive Staphylococcus aureus (MSSA); assay: Elastase dependant bacterial labelling in co-culture of bacteria and isolated human neutrophils (confocal); assay type: cell-based
Excerpt: FIG. 2A: Elastase dependant bacterial labelling scheme.
FIG. 2B: Elastase dependant bacterial labelling in vitro.
A first example of elastase sensitive probes (shown schematically in FIG. 2A) comprises methyl red (acting as a dark quencher) connected via the peptide sequence AAPV (acting as the linker) to 7-nitrobenz-2-oxa-1,3-diazole (NBD) and the ubiquicidin fragment UBI29-41 (together acting as the probe element). Accordingly, the NBD fluorescence is quenched by the methyl red and no fluorescent signal will be observed (i.e. the methyl red and NBD are acting as a FRET pair) and therefore, whether or not the probe is bound to any bacteria that may be present in the target area via UBI29-41, no signal is observed using confocal microscopy.
When the probe is in the presence of human neutrophil elastase (HNE), such as in inflamed tissue, HNE cleaves the peptide sequence of the linker, to thereby free the probe element from the methyl red quencher. Accordingly, the NBD fluorophore is no longer quenched and produces a fluorescent signal. In addition, due to the environmental sensitivity of the NBD, the signal produced is greatly amplified if the NBD is in a hydrophobic environment, such as within a cell membrane.

[2] = Stability in saline or BALF from patients with Acute Lung Injury (MALDI-TOF / FTMS); conditions: incubated for 30 minutes
Protocol: FIG. 16: NBD-UBIdend is stable in ALI BALF. […] NBD-PMX is stable in ALI BALF.
Secondly we assessed stability of the probes in broncholalveolar lavage fluid (BALF) from patients with Acute Lung Injury (ALI) by Fourier Transform Mass Spectrometry (FTMS) and Matrix-Assisted Laser Desorption/Ionization Time-of-Flight Mass Spectrometry (MALDI-TOF MS) analysis. NBD-UBINle, NBD-UBIdend and NBD-PMX were incubated for 30 minutes with BALF (FIG. 16).
In vitro labelling was assessed on benchtop confocal in the presence of compound with bacteria and labelling was compared to NBD-UBINle which served as a reference control for bacterial labelling. […] For the ex vivo and in vivo ovine lung experiments each compound was assessed in a control lung segment (instilled with 2 ml PBS) or a bacterial segment (instilled with 2 ml of 2 optical density of bacteria). Following bacterial instillation, the compound was administered to the segment of interest and this was imaged by probe based confocal laser endomicroscopy (FCFM).
Probe was added to saline or pooled BALF from patients with ALI incubated for 30 minutes. A ZipTip (C-18, 0.2 μL) with 5 μL MeCN (with 0.1% TFA as an additive) followed by 20 μL of H2O was washed. The ZipTip was loaded with the sample, washed and eluted into 5 μL of 80% aq. MeCN (with 0.1% TFA as an additive). The sample was analysed by MALDI-TOF (PerSeptive Biosystems Voyager DETMSTR MALDI-TOF mass spectrometer (Applied Biosystems, Foster City, Calif.)).

[3] = Rodent single dose intratracheal toxicity assessment; assay type: in vivo, Mice; set-up: Creatinine / Bilirubin / Albumin: unit not given here
human erythrocytes = assay: Haemolysis assay; conditions: up to 100 μM; 0.2% Triton-X = 100%
Protocol: Positive control was 0.2% Triton-X and values corrected to represent 100% haemolysis for Triton-X.
Erythrocytes were isolated from freshly drawn, anticoagulated human blood and resuspended to 20 vol % in PBS (pH 7.4). In a 96-well microtiter plate, 100 μl of erythrocyte suspension was added to 100 μl of NLLP solution in PBS (prepared by 1:2 serial dilutions) or 100 μl of PBS in the case of negative controls. One-hundred percent haemolysis wells contained 100 μl of red cell suspension with 100 μl of 0.2 vol % Triton X-100. The plate was incubated for 1 h at 37° C., and then each well was diluted with 150 μl of PBS. The plate was then centrifuged at 1,200 g for 15 min, 100 μl of the supernatant from each well was transferred to a fresh microtiter plate, and A350 was measured. Percentage of haemolysis was determined as (A−A0)/(Atotal−A0)×100, where A is the absorbance of the test well, A0 the absorbance of the negative controls, and Atotal the absorbance of 100% haemolysis wells, all at 350 nm on a Biotek plate reader.

[4] = test system: Pseudomonas aueriginosa (PA)
Excerpt: (§1) FIG. 3A: Elastase dependant bacterial labelling scheme. The fluorophore on the bacterial binding component is quenched by a different fluorophore of a longer wavelength meaning that no fluorescence is seen upon binding to bacteria. Cleavage of the elastase specific sequence AAPV liberates the bacterial binding component (PV-NBD-UBI) from the quencher (TAMRA). TAMRA reports the presence of activated neutrophils by endocytic uptake.
(§2) FIG. 3B: Elastase dependant bacterial labelling in vitro.
In a second example, the probe comprises carboxytetramethylrhodamine (TAMRA, acting as a fluorescent quencher) connected to NBD and polymyxin (acting as the probe element) via the peptide sequence AAPV (acting as the linker). Accordingly, the NBD fluorescence is quenched by the TAMRA to give rise to a fluorescent signal from TAMRA (i.e. the TAMRA is accepting the energy absorbed by the NBD and is itself fluorescing, TAMRA and NBD are acting as a FRET pair). Accordingly, whether or not the polymyxin has bound to any bacteria that may be present, only a signal from the TAMRA is observed.

activated neutrophils = conditions: TAMRA signal (red)
Excerpt: as §1, §2

elastase = elastase (Homo sapiens, UniProt P08246); conditions: ex 525, Em 580
Chain of elastase (P08246 30-247 limits assumed): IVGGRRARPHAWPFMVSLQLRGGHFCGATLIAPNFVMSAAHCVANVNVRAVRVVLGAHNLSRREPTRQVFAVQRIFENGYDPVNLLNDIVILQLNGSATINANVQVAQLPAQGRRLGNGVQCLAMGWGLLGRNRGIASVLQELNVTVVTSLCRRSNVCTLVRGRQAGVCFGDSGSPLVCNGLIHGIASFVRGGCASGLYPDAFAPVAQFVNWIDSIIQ

**Q.** With CSCCC(NC(=O)C(CCCNC(=N)N)NC(=O)C(CCCNC(=N)N)NC(=O)C(CCCCN)NC(=O)C(C)NC(=O)C(CCCNC(=N)N)NC(=O)CNC(=O)C(NC(=O)COCCOCCNC(=O)C(CCCCNc1ccc([N+](=O)[O-])c2nonc12)NC(=O)C(NC(=O)C1CCCN1C(=O)C(C)NC(=O)C(C)NC(=O)c1ccccc1/N=N/c1ccc(N(C)C)cc1)C(C)C)C(C)O)C(=O)NC(CCC(N)=O)C(=O)NC(Cc1ccc(O)cc1)C(=O)NC(CC(N)=O)C(=O)NC(CCCNC(=N)N)C(=O)NC(CCCNC(=N)N)C(N)=O (centres unmarked) [Example 1] (MethylRed-AAPVK(NBD)[AEEA]TGRAKRRMQYNRR-NH2; configuration not given here) as the molecule, how does the “bacterial labelling in co-culture of bacteria and neutrophils” value ([1]; confocal, neutrophil derived HNE present) read?
**A.** ability of the probe to be cleaved by neutrophil derived HNE and to label bacteria

**Q.** What about the “bacterial labelling with elastase inhibitor” value ([1]; elastase inhibitor sivelestat added to the medium) of the same molecule?
**A.** no labelling was observed

**Q.** With CCCC[C@H](NC(=O)[C@H](CCCNC(=N)N)NC(=O)[C@H](CCCNC(=N)N)NC(=O)[C@H](CCCCN)NC(=O)[C@H](C)NC(=O)[C@H](CCCNC(=N)N)NC(=O)CNC(=O)[C@@H](NC(=O)COCCOCCNc1ccc([N+](=O)[O-])c2nonc12)[C@@H](C)O)C(=O)N[C@@H](CCC(N)=O)C(=O)N[C@@H](Cc1ccc(O)cc1)C(=O)N[C@@H](CC(N)=O)C(=O)N[C@@H](CCCNC(=N)N)C(=O)N[C@@H](CCCNC(=N)N)C(=O)NCCOCCOCC(=O)NCCCOCC(COCCCNC(=O)COCCOCCNC(=O)[C@H](CCCNC(=N)N)NC(=O)[C@H](CCCNC(=N)N)NC(=O)[C@H](CC(N)=O)NC(=O)[C@H](Cc1ccc(O)cc1)NC(=O)[C@H](CCC(N)=O)NC(=O)[C@H](CCCC)NC(=O)[C@H](CCCNC(=N)N)NC(=O)[C@H](CCCNC(=N)N)NC(=O)[C@H](CCCCN)NC(=O)[C@H](C)NC(=O)[C@H](CCCNC(=N)N)NC(=O)CNC(=O)[C@@H](NC(=O)COCCOCCNc1ccc([N+](=O)[O-])c2nonc12)[C@@H](C)O)(COCCCNC(=O)COCCOCCNC(=O)[C@H](CCCNC(=N)N)NC(=O)[C@H](CCCNC(=N)N)NC(=O)[C@H](CC(N)=O)NC(=O)[C@H](Cc1ccc(O)cc1)NC(=O)[C@H](CCC(N)=O)NC(=O)[C@H](CCCC)NC(=O)[C@H](CCCNC(=N)N)NC(=O)[C@H](CCCNC(=N)N)NC(=O)[C@H](CCCCN)NC(=O)[C@H](C)NC(=O)[C@H](CCCNC(=N)N)NC(=O)CNC(=O)[C@@H](NC(=O)COCCOCCNc1ccc([N+](=O)[O-])c2nonc12)[C@@H](C)O)NC(N)=O (some centres unmarked) [NBD-UBIdend] as the molecule, how does the “stability in ALI BALF” value [2] read?
**A.** demonstrate stability

**Q.** What about the stability in saline [2] of the same molecule?
**A.** readily identified in both saline and BALF incubated samples

**Q.** And the ALP ([3]; 48 hours)?
**A.** 222.3 ± 80.3 u/l

**Q.** What about the ALT ([3]; 48 hours) of the same molecule?
**A.** 24.0 ± 1.2 u/l

**Q.** And the Albumin ([3]; 48 hours)?
**A.** 22.3 ± 1.8

**Q.** What about the BALF ([3]; 48 hours) of the same molecule?
**A.** 477.1 ± 150.6 Cells/ul

**Q.** What about the Bilirubin ([3]; 48 hours) of the same molecule?
**A.** 2 ± 0

**Q.** What about the Creatinine ([3]; 48 hours) of the same molecule?
**A.** 8.3 ± 0.7

**Q.** And the “Cytospin (% of Neutrophils)” value ([3]; 48 hours)?
**A.** 3.6%

**Q.** What about the “Cytospin (% of Red Blood Cells)” value ([3]; 48 hours) of the same molecule?
**A.** 0%

**Q.** What about the PenH value ([3]; 48 hours) of the same molecule?
**A.** 0.5 ± 0.06

**Q.** What about the “Cytospin (% of Mononuclear cells)” value ([3]; 48 hours, single intratracheal 100 μg/25 g mouse) of the same molecule?
**A.** 96.4%

**Q.** What about the ALP ([3]; 14 days) of the same molecule?
**A.** 227.0 ± 27.1 u/l

**Q.** And the ALT ([3]; 14 days)?
**A.** 28.3 ± 1.9 u/l

**Q.** And the Albumin ([3]; 14 days)?
**A.** 25.0 ± 1.2

**Q.** And the BALF ([3]; 14 days)?
**A.** 342.7 ± 6.5 Cells/ul

**Q.** And the Bilirubin ([3]; 14 days)?
**A.** 2 ± 0

**Q.** And the Creatinine ([3]; 14 days)?
**A.** 9.0 ± 1.5

**Q.** And the “Cytospin (% of Neutrophils)” value ([3]; 14 days)?
**A.** 0%

**Q.** What about the “Cytospin (% of Red Blood Cells)” value ([3]; 14 days) of the same molecule?
**A.** 0%

**Q.** And the PenH value ([3]; 14 days)?
**A.** 0.5 ± 0.04

**Q.** And the “Cytospin (% of Mononuclear cells)” value ([3]; 14 days, single intratracheal 100 μg/25 g mouse)?
**A.** 100%

**Q.** And the “organ toxicity (histology)” value ([3]; single instillation, 48 hours and 14 days, compared to PBS control)?
**A.** no organ toxicity

**Q.** And the toxicity ([3]; single intratracheal 100 μg/25 g mouse, 48 hours and 14 days)?
**A.** no toxicity

**Q.** And the red cell haemolysis (human erythrocytes)?
**A.** no red cell haemolysis

**Q.** With CC(C)C[C@@H]1NC(=O)[C@@H](Cc2ccccc2)NC(=O)[C@@H](CCN)NC(=O)C(NC(=O)[C@H](CCN)NC(=O)[C@@H](NC(=O)COCCOCCNC(=O)C(CCCCNc2ccc([N+](=O)[O-])c3nonc23)NC(=O)C(NC(=O)C2CCCN2C(=O)C(C)NC(=O)C(C)NC(=O)c2ccc3c(c2)C2(OC3=O)c3ccc(N(C)C)cc3Oc3cc(N(C)C)ccc32)C(C)C)[C@@H](C)O)CCNC(=O)[C@@H]([C@H](C)O)NC(=O)[C@H](CCN)NC(=O)[C@H](CCN)NC1=O (some centres unmarked) [TAMRA-AAPV-NBD-PMX] (X1-[ξA][ξA][ξP][ξV][ξK](NBD)[AEEA]T[Dab][ξDab][dDab][dF]L[Dab][Dab][dT]; lactam 9-C) as the molecule, how does the bacterial labelling ([4]; activated neutrophils, NBD signal (green)) read?
**A.** bacterial labelling (shown in green) in an elastase dependent manner

**Q.** And the bacterial labelling ([4]; unactivated neutrophils)?
**A.** no labelling in the presence of unactivated neutrophils

**Q.** What about the “labelling of activated neutrophils” value (activated neutrophils) of the same molecule?
**A.** labelling of activated neutrophils (shown in red) in an elastase independent manner

**Q.** And the “fluorescence of TAMRA following cleavage, with elastase inhibitor” value (elastase; elastase inhibitor)?
**A.** inhibited with an elastase inhibitor

**Q.** What about the “fluorescence of TAMRA following cleavage” value (elastase; with elastase) of the same molecule?
**A.** increase in fluorescence of TAMRA-AA (cleaved compound) compared to TAMRA-AAPV-NBD-PMX in an elastase dependent manner
